Data published in article PMC6430648.

B1: IL-6 Unfunctionalized-3 (ssDNA)
DNA: CTCGGATGAACCTGGACTCTGTTTTTACTACCGCGCTAGCCGCCTCATCCGTTTTAGCGCCATGCATCGAAGCCAAGATTC
B2: IL-6 Unfunctionalized-1 (ssDNA)
DNA: CTCGGATGAACCTGGACTTTATTGCACTGGCTGTACTTTTCGTATCCATGGTCATCTTTTCTAGCATCGAAGCCAAGATTC
B3: IL-6 Unfunctionalized-4 (ssDNA)
DNA: CTCGGATGAACCTGGACTTAATGATGCTCATGGTGCTCTTCATCACCATCTTCGTTCCATCCTGCATCGAAGCCAAGATTC
B4: PCSK9 Unfunctionalized-3 (ssDNA)
DNA: CGAATCAGATTGGACCAGCACCCTCCGTCTCCGCTCCCCTCGTCTTGTTGTTTCCCTTTCCCTGAGTCCAGATGTAGGTAG
B5: PCSK9 Charged-2 (ssDNA)
DNA: CGAATCAGATTGGACCAGTTTCATCCCTTTTTGCCACCCCTTTGTTGTCCACCCCCATGTCCTGAGTCCAGATGTAGGTAG
modifications: none (no functionalized codon)
B6: PCSK9 Unfunctionalized-1 (ssDNA)
DNA: CGAATCAGATTGGACCAGTTACCGCCCTCTCCCTTTTGTCCCCTCCGTTGTTTCTCTTTCCCTGAGTCCAGATGTAGGTAG
B7: IL-6 Unfunctionalized-5 (ssDNA)
DNA: CTCGGATGAACCTGGACTTCTTCATTGCGCTGGTGCCTGCCATCCTTGTTCCATCCCCTTTGCGCATCGAAGCCAAGATTC
B8: IL-6 Unfunctionalized-2 (ssDNA)
DNA: CTCGGATGAACCTGGACTTTACTGCGGCGCCAGCCGTGCCCATCCTTTCTTCATCCGTGCCCAGCATCGAAGCCAAGATTC

Assays:
IL-6 = IL-6 (UniProt P05231 30-212); assay: SPR
IL-6, sequence (P05231 30-212): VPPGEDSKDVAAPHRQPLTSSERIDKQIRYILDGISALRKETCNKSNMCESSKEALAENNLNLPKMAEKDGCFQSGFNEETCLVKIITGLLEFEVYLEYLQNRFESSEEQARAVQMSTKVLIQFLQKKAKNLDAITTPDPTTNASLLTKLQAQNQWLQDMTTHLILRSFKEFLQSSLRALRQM

PCSK9 = PCSK9 (UniProt Q8NBP7 153-692); assay: SPR
PCSK9, sequence (Q8NBP7 153-692): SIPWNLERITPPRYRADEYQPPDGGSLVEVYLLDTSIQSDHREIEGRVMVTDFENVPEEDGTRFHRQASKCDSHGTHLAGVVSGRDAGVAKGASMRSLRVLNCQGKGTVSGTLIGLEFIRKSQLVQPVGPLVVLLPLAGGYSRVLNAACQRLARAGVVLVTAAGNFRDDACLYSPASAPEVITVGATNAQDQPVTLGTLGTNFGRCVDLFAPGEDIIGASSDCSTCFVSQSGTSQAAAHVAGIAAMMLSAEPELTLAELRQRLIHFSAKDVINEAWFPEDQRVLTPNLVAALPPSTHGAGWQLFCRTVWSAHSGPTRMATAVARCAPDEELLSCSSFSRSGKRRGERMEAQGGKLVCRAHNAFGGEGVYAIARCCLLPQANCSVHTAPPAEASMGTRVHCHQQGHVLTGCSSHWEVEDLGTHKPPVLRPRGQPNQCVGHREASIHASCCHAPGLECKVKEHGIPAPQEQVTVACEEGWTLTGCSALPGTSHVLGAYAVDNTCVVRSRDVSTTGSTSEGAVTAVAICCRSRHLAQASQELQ

Row | Binder | binding signal (IL-6) [%Rmax] | binding signal (PCSK9) [%Rmax]
1 | B1 | 3 | –
2 | B2 | 4 | –
3 | B3 | 4 | –
4 | B4 | – | 34
5 | B5 | – | 11
6 | B6 | – | 30
7 | B7 | 4 | –
8 | B8 | 3 | –
